# Test results from US20090081195A1 (OTTAWA HEALTH RESEARCH INSTITUTE, published 2009).
# T1: GST-SLK 950-1202 (GST-tagged SLK ATH domain) (murine, UniProt O54988 981-1233)
# T1 construct: Bacterially expressed GST fusion on glutathione sepharose; also called GST-ATH; not shown: glutathione S-transferase (GST) tag of pGEX-5X or pGEX-4T1 (Amersham)
# T1 sequence: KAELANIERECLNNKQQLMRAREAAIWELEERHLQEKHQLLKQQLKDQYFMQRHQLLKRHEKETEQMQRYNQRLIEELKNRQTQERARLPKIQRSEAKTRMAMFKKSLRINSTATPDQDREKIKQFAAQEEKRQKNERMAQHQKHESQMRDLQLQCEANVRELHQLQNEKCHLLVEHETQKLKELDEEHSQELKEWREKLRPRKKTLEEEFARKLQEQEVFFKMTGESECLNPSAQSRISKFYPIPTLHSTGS
# Biological target: T1, GST-SLK 950-1202 (GST-tagged SLK ATH …)
# Assay: binding of [35S]-labeled Ldb2 deletions to GST-ATH
# Protocol: (c) Schematics of Myc epitope-tagged SLK deletion mutants. […] (d) Co-transfection of HA-tagged Ldb2 and Myc-tagged SLK deletion constructs was performed in HEK 293 cells. Extracts were immunoprecipitated with anti-HA antibody (12CA5) and immunoblotted with anti-Myc antibody (9E10) (bottom panel). Expression of the transfected constructs was confirmed by western blotting (top and middle panels). […] (e) Reciprocal co-IP showing that full length HA-SLK associates with Myc-Ldb1 and 2. (f) Association of endogenous SLK and Ldb. Ldb1 was immunoprecipitated from protein lysates obtained from MEF cells and primary neurons and subjected to western blot analysis with an anti-SLK antibody. A 220 KDa band corresponding to SLK co-precipitated with […]. Reciprocal immunoprecipitations were also performed on N1E 115 neuroblastoma cells or primary cortical neurons. A 50 Kda band corresponding to Ldb1 co-precipitated with SLK. As a control for non-specific binding to the sepharose beads, protein-A sepharose beads alone were added to 400 μg of the same protein lysates. Similar results were obtained with Ldb2
# To map the Ldb1/2 domains of interaction, [35S]-labeled deletions of Ldb1 were assayed for binding to a GST-tagged SLK ATH domain (FIG. 17a). […] In addition, versions of Ldb2 lacking the C-terminal LIM binding domain (ΔLBD) were able to bind the SLK ATH domain while the LBD of Ldb2 by itself could not bind (FIG. 17b). Further deletion of 62 amino acids from the carboxy terminal end of the dimerization domain (DDΔC) retained binding thus refining the Ldb2 binding region to the SLK ATH domain in the C-terminal 124 amino acids of Ldb2. An analogous set of Ldb1 deletion mutants were tested for binding to GST-ATH with similar results (data not shown).
row,binding result,Binder
1,binds,"HA-Ldb2 NLS (aa 188-288) (other, mouse, UniProt O55203 188-288, looked up, not shown: small tags and cut ends, [35S]-methionine label, range 188-288; In vitro translated; also called Ldb2 nuclear localization signal domain) SKNITRMGLTNFTLNYLRLCVILEPMQELMSRHKTYNLSPRDCLKTCLFQKWQRMVAPPAEPTRQPTTKRRKRKNSTSSTSNSSAGNTTNSAGSKKKTPAA"
2,no binding,"HA-Ldb2 LBD (aa 298-373) (other, mouse, UniProt O55203 298-373, looked up, not shown: small tags and cut ends, [35S]-methionine label, In vitro translated) DVMVVGEPTLMGGEFGDEDERLITRLENTQYDAANGMDDEEDFNNSPALGNNSPWNSKPPATQETKSENAPPQASQ"
3,binds,"HA-Ldb2 DD (aa 1-186) (other, mouse, UniProt O55203 1-186, looked up, not shown: small tags and cut ends, [35S]-methionine label, In vitro translated; also called Ldb2 dimerization domain) MSSTPHDPFYSSPFGPFYRRHTPYMVQPEYRIYEMNKRLQSRTEDSDNLWWDAFATEFFEDDATLTLSFCLEDGPKRYTIGRTLIPRYFSTVFEGGVTDLYYILKHSKESYHNSSITVDCDQCAMVTQHGKPMFTKVCTEGRLILEFTFDDLMRIKTWHFTIRQYRELVPRSILAMHAQDPQVLDQ"
